Results on one substance are retold here after patent publication US20230235334A1.

The assay deals with OmpR fused to the VP64 activation domain (E. coli). Kind of assay: cell-based or functional assay.

For “EnvZm2 (T247A) (from UniProt A0A4P7TSF2 1-450) (enzyme)”, the fold-change of OmpR-driven mKate2 median fluorescence output (6xmCMV37 promoter, HEK-293FT cells), EnvZm2 (kinase) against EnvZm1 (D244A phosphatase, SEQ ID NO: 2), at the highest levels of OmpR worked out at 40 fold; the fold-change of mKate2 median fluorescence output from the strongest OmpR promoter when the kinase (EnvZm2) or the phosphatase (EnvZm1) was present, HEK-293FT cells came out at 500 fold; the relative kinase strength against EnvZm1 phosphatase, from OmpR-driven mKate2 output in kinase titrations (Open-loop against Const. P), HEK-293FT cells was under 3 fold.
